Measurements from article PMC6917504 (Biochemistry, 2017).

How the values were obtained:
cross-linking = target: the molecule itself; assay: cross-linking
SEC = target: the molecule itself; assay: SEC

Protein | stoichiometry N (cross-linking) | stoichiometry N (SEC)
hCNT3 Y266C/F463C double cysteine mutant (natural protein, human, UniProt Q9HAS3 1-691, looked up) MELRSTAAPRAEGYSNVGFQNEENFLENENTSGNNSIRSRAVQSREHTNTKQDEEQVTVEQDSPRNREHMEDDDEEMQQKGCLERRYDTVCGFCRKHKTTLRHIIWGILLAGYLVMVISACVLNFHRALPLFVITVAAIFFVVWDHLMAKYEHRIDEMLSPGRRLLNSHWFWLKWVIWSSLVLAVIFWLAFDTAKLGQQQLVSFGGLIMYIVLLFLFSKYPTRVYWRPVLWGIGLQFLLGLLILRTDPGFIAFDWLGRQVQTFLECTDAGASFVFGEKYKDHFFAFKVLPIVVFFSTVMSMLYYLGLMQWIIRKVGWIMLVTTGSSPIESVVASGNIFVGQTESPLLVRPYLPYITKSELHAIMTAGFSTIAGSVLGAYISFGVPSSHLLTASVMSAPASLAAAKLFWPETEKPKITLKNAMKMESGDSGNLLEAATQGASSSISLVANIAVNLIAFLALLSCMNSALSWFGNMFDYPQLSFELICSYIFMPFSFMMGVEWQDSFMVARLIGYKTFFNEFVAYEHLSKWIHLRKEGGPKFVNGVQQYISIRSEIIATYALCGFANIGSLGIVIGGLTSMAPSRKRDIASGAVRALIAGTVACFMTACIAGILSSTPVDINCHHVLENAFNSTFPGNTTKVIACCQSLLSSTVAKGPGEVIPGGNHSLYSLKGCCTLLNPSTFNCNGISNTF | 3 | –
Human concentrative nucleoside transporter 3 (hCNT3, SLC28A3), wild type, purified from High Five insect cells (natural protein, UniProt Q9HAS3 1-616, looked up) MELRSTAAPRAEGYSNVGFQNEENFLENENTSGNNSIRSRAVQSREHTNTKQDEEQVTVEQDSPRNREHMEDDDEEMQQKGCLERRYDTVCGFCRKHKTTLRHIIWGILLAGYLVMVISACVLNFHRALPLFVITVAAIFFVVWDHLMAKYEHRIDEMLSPGRRLLNSHWFWLKWVIWSSLVLAVIFWLAFDTAKLGQQQLVSFGGLIMYIVLLFLFSKYPTRVYWRPVLWGIGLQFLLGLLILRTDPGFIAFDWLGRQVQTFLEYTDAGASFVFGEKYKDHFFAFKVLPIVVFFSTVMSMLYYLGLMQWIIRKVGWIMLVTTGSSPIESVVASGNIFVGQTESPLLVRPYLPYITKSELHAIMTAGFSTIAGSVLGAYISFGVPSSHLLTASVMSAPASLAAAKLFWPETEKPKITLKNAMKMESGDSGNLLEAATQGASSSISLVANIAVNLIAFLALLSFMNSALSWFGNMFDYPQLSFELICSYIFMPFSFMMGVEWQDSFMVARLIGYKTFFNEFVAYEHLSKWIHLRKEGGPKFVNGVQQYISIRSEIIATYALCGFANIGSLGIVIGGLTSMAPSRKRDIASGAVRALIAGTVACFMTACIAGILSSTP | – | 3
